From patent publication US8658672 come the findings set out here.

In series [1] the target is [35S]-labeled human HIF-1α protein, Q16665.
Series [2] has as its target T1, F-HIF-1α peptide (788-822 amino acids).
T1 chain: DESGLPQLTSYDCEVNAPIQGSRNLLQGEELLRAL

[35S]-labeled human HIF-1α protein, Q16665, sequence (Q16665 401-826): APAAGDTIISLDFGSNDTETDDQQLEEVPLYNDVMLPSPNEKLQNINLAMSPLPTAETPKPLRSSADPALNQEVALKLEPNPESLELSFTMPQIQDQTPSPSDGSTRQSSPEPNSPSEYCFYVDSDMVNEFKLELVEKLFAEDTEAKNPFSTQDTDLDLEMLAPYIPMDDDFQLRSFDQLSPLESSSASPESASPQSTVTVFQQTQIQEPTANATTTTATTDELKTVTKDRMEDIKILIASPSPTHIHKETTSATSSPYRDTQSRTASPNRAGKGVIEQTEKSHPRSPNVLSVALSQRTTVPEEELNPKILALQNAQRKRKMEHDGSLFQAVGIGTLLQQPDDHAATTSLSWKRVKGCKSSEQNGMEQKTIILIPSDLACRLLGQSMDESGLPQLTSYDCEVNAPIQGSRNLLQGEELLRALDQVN

B1: recombinant human FIH-1, histidine-tagged fusion protein (protein)
chain: MAATAAEAVASGSGEPREEAGALGPAWDESQLRSYSFPTRPIPRLSQSDPRAEELIENEEPVVLTDTNLVYPALKWDLEYLQENIGNGDFSVYSASTHKFLYYDEKKMANFQNFKPRSNREEMKFHEFVEKLQDIQQRGGEERLYLQQTLNDTVGRKIVMDFLGFNWNWINKQQGKRGWGQLTSNLLLIGMEGNVTPAHYDEQQNFFAQIKGYKRCILFPPDQFECLYPYPVHHPCDRQSQVDFDNPDYERFPNFQNVVGYETVVGPGDVLYIPMYWWHHIESLLNGGITITVNFWYKGAPTPKRIEYPLKAHQKVAIMRNIEKMLGEALGNPQEVGPLLNTMIKGRYN
For B1, in series [1], the “interaction of [35S]-HIF-1α with bead-bound GST-CBP after reaction with FIH-1” value was “the addition of FIH-1 reduced significantly the interaction between HIF-1α and CBP”. Moreover, in series [2], the “MALDI-TOF mass of the peptide after incubation with FIH-1 (asparagine hydroxylation)” value is listed as “after treatment with FIH-1 the peptide gave a new MALDI-TOF peak corresponding to an increase of molecular weight of 16”.
